Measurements taken from article PMC10796322, “Molecular switching in transcription through splicing and proline-isomerization regulates stress responses in plants” (Nature Communications, 2024).
Several values for one entry are separate records, joined by “and”; a condition that tells them apart may be missing. Equal values may be shown once. No end group written: not given here.

B3: Med25-ACID_(532-680), activator interaction domain (ACID) of mediator complex subunit 25 (domain or fragment, Arabidopsis thaliana, UniProt Q7XYY2 532-680, looked up)
chain: SNSSAPNMQLSQPSSGAMQTSQSKYVKVWEGNLSGQRQGQPVLITRLEGYRSASASDSLAANWPPTMQIVRLISQDHMNNKQYVGKADFLVFRAMSQHGFLGQLQDKKLCAVIQLPSQTLLLSVSDKACRLIGMLFPGDMVVFKPQIPN
notes: 15N- or 13C,15N-labelled in the NMR titrations; unlabelled in ITC, CEST and stopped-flow; also called AtMed25-ACID; ACID domain; source: E. coli BL21 DE3, purified (glutathione Sepharose, TEV cleavage, cation exchange, SEC); not shown: GST, N-terminal, cleaved

Assays:
[1] = biological target: T1, Med25-ACID (Arabidopsis thaliana, UniProt Q7XYY2); conditions: SD
T1 construct: Med25-ACID532-680 (AT1G25540), expressed in E. coli with N-terminal GST tag removed by TEV protease
Experimental: All protein fragments were produced with an N-terminal Glutathione-S-transferase (GST) tag which was removed using Tobacco Etch Virus (TEV) protease and expressed from E.coli BL21 DE3 cells. DREB2A (AT5G05410) variants were expressed at 37 °C for three hours. The DREB2A splice variant (AT5G05410.2) was based on GenBank ID CD530293[21]. Due to stability and aggregation considerations, Med25-ACID (AT1G25540) was expressed with additional N-terminal residues. Expression of Med25-ACID532-680 was induced at high OD (0.8-1.0) and cultured overnight at 18 °C. Cells were resuspended in 20 mM Tris-HCl pH 8.0, 100 mM NaCl lysis buffer and sonicated. The lysate was incubated with glutathione Sepharose for one hour and washed using the lysis buffer. Aliquots of 5 mL resin were resuspended in 20 mL of lysis buffer with 5 mM dithiothreitol (DTT) and 1 mM EDTA and the protein was cleaved overnight at 4 °C using TEV protease. For DREB2A, cleaved protein was freeze-dried and buffer-changed to experimental buffer using size exclusion chromatography. Med25-ACID was further purified using cation exchange (Source 15 S) at pH 8.5 and the buffer was changed using size exclusion chromatography (Superdex S75 10/300 GL). Isotope-labeled proteins were produced by growing the initial culture in lysogenic broth and transferring to half volume M9 minimal media 30 min before induction.
ITC was performed on either a MicroCal ITC200 or a Malvern Pananalytical PEAQ-ITC. All ITC experiments were performed using a 50 mM HEPES pH 7.4, 100 mM NaCl and 0.5 mM tris(2-carboxyethyl)phosphine (TCEP) buffer. All experiments were performed using a ~ 1:10 cell to syringe protein concentration ratio. For high-affinity DREB2A fragments, the cell concentration was around 15 µM, while lower-affinity interaction experiments used higher concentrations. Samples were degassed by centrifuging at 20,000 x g for 20 minutes at experimental temperature. For three DREB2A fragments, experiments were performed over a range of temperatures to determine the ΔCp. Reported thermodynamic parameters are given at 25 °C. Data were analyzed using Origin and inhouse scripts using the one-set-of-sites model as documented by MicroCal and Origin. Dilution heats were fitted using an offset parameter. Most experiments were performed using a 0.5 µl initial injection, which was discarded in the analysis, followed by 18 injections of 2.0 µl.

[2] = biological target: Med25-ACID_(532-680), activator interaction domain (ACID) of mediator complex subunit 25 (Arabidopsis thaliana) (UniProt Q7XYY2); experiment: NMR titration; 15N-HSQC; 100-150 µM 15N-labeled Med25-ACID(532-680) at constant concentration with increasing DREB2A ligand; 20 mM Na2HPO4/NaH2PO4 pH 6.5, 100 mM NaCl; chemical shift perturbations
[3] = biological target: RCD1 RST (Arabidopsis thaliana) (UniProt Q8RY59); conditions: cited from earlier work
[4] = biological target: T2, Med25-ACID_(532-680), activator interaction domain (ACID) of mediator complex subunit 25 (Arabidopsis thaliana, UniProt Q7XYY2 532-680); experiment: stopped-flow, cis proline isomer, 10 °C
T2 chain: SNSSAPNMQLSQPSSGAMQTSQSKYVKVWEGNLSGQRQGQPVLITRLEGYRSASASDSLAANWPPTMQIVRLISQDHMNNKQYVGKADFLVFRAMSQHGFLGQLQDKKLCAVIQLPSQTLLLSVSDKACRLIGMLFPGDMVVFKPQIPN

[5] = biological target: T2, Med25-ACID_(532-680), activator …; experiment: stopped-flow, trans proline isomer, 10 °C
[6] = biological target: B3; experiment: stopped-flow fluorescence; FITC-DREB2A (50 nM 234-276 or 250 nM 234-256) mixed with increasing Med25-ACID(532-680), pseudo-first-order; dissociation by competitive displacement with unlabeled DREB2A; 50 mM HEPES pH 7.4, 100 mM NaCl, 1 mM DTT; Fig. 7 legend gives kinetic rate constants at 10 °C; conditions: both partners purified
[7] = biological target: T3, Med25-ACID R568A (Arabidopsis thaliana, UniProt Q7XYY2 532-680, R568A); experiment: ITC
T3 sequence: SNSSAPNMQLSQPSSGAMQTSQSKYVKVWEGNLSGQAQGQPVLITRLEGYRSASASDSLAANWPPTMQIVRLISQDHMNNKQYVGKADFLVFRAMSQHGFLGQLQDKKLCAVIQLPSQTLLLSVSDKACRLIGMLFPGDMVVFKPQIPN

[8] = biological target: B3; experiment: ITC; 25 °C; 50 mM HEPES pH 7.4, 100 mM NaCl, 0.5 mM TCEP; ~1:10 cell to syringe concentration ratio, cell around 15 µM for high-affinity fragments; one-set-of-sites model; which protein was in the cell is not stated; conditions: both partners purified
[9] = biological target: T2, Med25-ACID_(532-680), activator …; experiment: NMR; first site (Kd,1), competitive two binding sites model
[10] = biological target: T2, Med25-ACID_(532-680), activator …; experiment: NMR; second site (Kd,2), competitive two binding sites model
[11] = biological target: T4, DREB2A_(151-335) (Arabidopsis thaliana, UniProt O82132 151-335); experiment: ITC; 25 °C; 50 mM HEPES pH 7.4, 100 mM NaCl, 0.5 mM TCEP; ~1:10 cell to syringe concentration ratio, cell around 15 µM for high-affinity fragments; one-set-of-sites model; which protein was in the cell is not stated; conditions: both partners purified
T4 construct: also called C-terminal intrinsically disordered region (IDR) of DREB2A; source: E. coli BL21 DE3, purified (glutathione Sepharose, TEV cleavage, SEC); not shown: GST, N-terminal, cleaved
T4 sequence (looked up): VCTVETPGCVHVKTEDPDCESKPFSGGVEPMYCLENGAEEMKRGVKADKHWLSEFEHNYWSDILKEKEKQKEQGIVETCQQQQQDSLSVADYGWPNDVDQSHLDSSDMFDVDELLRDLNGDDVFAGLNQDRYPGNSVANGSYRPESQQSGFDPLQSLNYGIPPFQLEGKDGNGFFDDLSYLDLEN

[12] = biological target: T2, Med25-ACID_(532-680), activator …; experiment: stopped-flow, 10 °C
[13] = biological target: T2, Med25-ACID_(532-680), activator …; experiment: stopped-flow, 10 °C

Molecule: DREB2A195-276 W244A
- Kd [1]: 1.9 ± 0.2 µM

Molecule: DREB2A195-276 D241A
- Kd [1]: 2 ± 0.7 µM

Molecule: DREB2A151-335 [151–335]
- Kd [1]: 0.54 ± 0.04 µM

Molecule: DREB2A195-276 F259A
- Kd [1]: 0.55 ± 0.05 µM

Molecule: DREB2A234-335 [234–335]
- Kd [1]: 0.44 ± 0.06 µM

Molecule: DREB2A195-276 E263P
- Kd [1]: 0.58 ± 0.04 µM

Molecule: DREB2A_(255-276) (RIM) (from UniProt O82132 255-276) (domain or fragment)
- KD (binding surface site) [2]: 3000 to 6000 µM
- KD (binding surface site, by NMR) [2]: 5000 µM
- KD (groove site) [2]: 200 to 400 µM

Molecule: DREB2A (from UniProt O82132)
- Kd [3]: 0.012 µM

Molecule: DREB2A195-276 V239A
- Kd [1]: 2 ± 0.2 µM

Molecule: DREB2A195-276 F274A
- Kd [1]: 0.66 ± 0.09 µM

Molecule: DREB2A195-335,Δ244-276 (splice variant fragment) [195–335 ∆244–276]
- Kd [1]: 5.4 ± 0.6 µM

Molecule: DREB2A195-276 L237A
- Kd [1]: 2.4 ± 0.3 µM

Molecule: QDSLSVADYGWPNDVDQSHLDSSDMFDVDELLRDLNGDDVFAG (domain or fragment, also: FITC label, position not given here)
- koff [4]: 6 s⁻¹
- koff [5]: 24 s⁻¹

B1: FITC-DREB2A_(234-276) (domain or fragment, Arabidopsis thaliana, UniProt O82132 234-276, looked up)
chain: QDSLSVADYGWPNDVDQSHLDSSDMFDVDELLRDLNGDDVFAG
modifications: also: single FITC label, position not given here
notes: also called FITC-labeled ABS-RIM; single-labeled FITC-DREB2A; source: E. coli BL21 DE3, purified; labeled with a FITC labeling kit (Pierce) and purified by reversed phase chromatography; not shown: GST, N-terminal, cleaved
- binding result [6]: binds

B2: DREB2A_(195-276) (domain or fragment, Arabidopsis thaliana, UniProt O82132 195-276, looked up)
chain: VKADKHWLSEFEHNYWSDILKEKEKQKEQGIVETCQQQQQDSLSVADYGWPNDVDQSHLDSSDMFDVDELLRDLNGDDVFAG
notes: source: E. coli BL21 DE3, purified (glutathione Sepharose, TEV cleavage, SEC); not shown: GST, N-terminal, cleaved
- Kd [7]: 3.2 µM and 2.9 µM
- Kd [8]: 0.45 µM
- dH [8]: -12.2 kcal/mol
- stoichiometry N [8]: 1.09

Molecule: SSDMFDVDELLRDLNGDDVFAG (domain or fragment) [DREB2A_(255-276) (RIM)]
- Kd [9]: 280 µM
- Kd [10]: 4700 µM

Molecule: B3
- Kd [11]: 0.54 µM

B4: FITC-DREB2A_(234-256) synthetic peptide (peptide, UniProt O82132 234-256, looked up)
peptide: QDSLSVADYGWPNDVDQSHLDSS
modifications: also: FITC label, position not given here
notes: DREB2A, Arabidopsis thaliana, AT5G05410, residues 234-256; also called FITC-labeled ABS; source: synthetic peptide, bought: TAG Copenhagen A/S
- kon [6]: 2.9e+07 ± 1e+06 M⁻¹ s⁻¹
- koff [12]: 54 s⁻¹
- Kd [13]: 1.8 µM
